{"source": "paper PMC4565553", "molecules": {"B1": {"name": "human MDA5 CARD1 (1–96) (domain or fragment)", "chain": "MSNGYSTDENFRYLISCFRARVKMYIQVEPVLDYLTFLPAEVKEQIQRTVATSGNMQAVELLLSTLEKGVWHLGWTREFVEALRRTGSPLAARYMN"}, "B2": {"name": "human RIG-I CARD1 (1–87) (domain or fragment)", "chain": "MTTEQRRSLQAFQDYIRKTLDPTYILSYMAPWFREEEVQYIQAEKNNKGPMEAATLFLKFLLELQEEGWFRGFLDALDHAGYSGLYE"}, "B3": {"name": "mutant human RIG-I CARD1 (Glu66,67—Arg) (domain or fragment)", "chain": "B2 chain with E66R, E67R"}}, "experiment_in_all_cases": "BLI; label-free in vitro kinetics assay; FLAG-tagged IPS1 CARD (2.5 μg/mL) immobilised on anti-FLAG probes; RLR CARDs at 0.001–100 μM in 1x Kinetics Buffer (ForteBio) with BSA, pH 7.0; 60 min association, 60 min dissociation; Kd = half-maximal steady-state binding, Km = half-maximal initial binding rate, one-site fit, 3 replicates; no ubiquitin", "key": {"[1]": {"target": "B. floridae IPS1 CARD (Branchiostoma floridae)"}, "[2]": {"target": "human IPS1 CARD (1–92), FLAG-tagged (human) (UniProt Q7Z434)"}, "[3]": {"target": "mutant human IPS1 CARD (Arg66,67—Glu), FLAG-tagged (human) (UniProt Q7Z434)"}}, "note": "Residue numbers refer to the chain shown, from its start.", "data": [{"molecule": "B. floridae RIG-I CARD1+2 (domain or fragment)", "values": [{"measurement": "fold lower Kd than the negative control (human CASP9 CARD)", "setting": "[1]", "result": 5.4, "unit": "fold"}, {"measurement": "fold lower Km than the negative control (human CASP9 CARD)", "setting": "[1]", "result": 6.1, "unit": "fold"}]}, {"molecule": "B1", "values": [{"measurement": "Kd", "setting": "[2]", "result": 813, "unit": "nM"}, {"measurement": "Km (half-maximal initial binding rate)", "setting": "[2]", "result": 0.55, "unit": "µM"}]}, {"molecule": "B2", "values": [{"measurement": "Kd", "setting": "[2]", "result": 33.1, "unit": "nM"}, {"measurement": "Km (half-maximal initial binding rate)", "setting": "[2]", "result": 0.0389, "unit": "µM"}, {"measurement": "fold stronger binding than human caspase9 CARD (negative control)", "setting": "[2]", "result": 70, "unit": "fold"}, {"measurement": "fold increase in Kd against wild-type IPS1 CARD", "setting": "[3]", "result": 34.6, "unit": "fold"}, {"measurement": "fold increase in Km against wild-type IPS1 CARD", "setting": "[3]", "result": 43.8, "unit": "fold"}]}, {"molecule": "B3", "values": [{"measurement": "fold increase in Kd against wild-type RIG-I CARD1", "setting": "[2]", "result": 10, "unit": "fold"}, {"measurement": "fold increase in Km against wild-type RIG-I CARD1", "setting": "[2]", "result": 6.9, "unit": "fold"}]}]}
